Test results taken from US6573364 (CURAGEN, dated 2003).

B1: HPS protein fragment 210-1292 fused to the Gal4 activator domain (reverse screen) (other)
chain: KCVLVATEGAEVLFYWTDQEFEESLRLKFGQSENEEEELPALEDQLSTLLAPVIISSMTMLEKLSDTYTCFSTENGNFLYVLHLFGECLFIAINGDHTESEGDLRRKLYVLKYLFEVHFGLVTVDGHLIRKELRPPDLAQRVQLWEHFQSLLWTYSRLREQEQCFAVEALERLIHPQLCELCIEALERHVIQAVNTSPERGGEEALHAFLLVHSKLLAFYSSHSASSLRPADLLALILLVQDLYPSESTAEDDIQPSPRRARSSQNIPVQQAWSPHSTGPTGGSSAETETDSFSLPEEYFTPAPSPGDQSSGSTIWLEGGTPPMDALQIAEDTLQTLVPHCPVPSGPRRIFLDANVKESYC
notes: Residue limits are derived from the printed nucleotide limits; also called HPS protein domain 210-1292; HPS U65676 210-1292; not shown: order of the two pie
B5: HPS protein fragment 1272-2357 fused to the Gal4 activator domain (reverse screen) (other)
chain: NVKESYCPLVPHTMYCLPLWQGINLVLLTRSPSAPLALVLSQLMDGFSMLEKKLKEGPEPGASLRSQPLVGDLRQRMDKFVKNRGAQEIQSTWLEFKAKAFSKSEPGSSWELLQACGKLKRQLCAIYRLNFLTTAPSRGGPHLPQHLQDQVQRLMREKLTDWKDFLLVKSRRNITMVSYLEDFPGLVHFIYVDRTTGQMVAPSLNCSQKTSSELGKGPLAAFVKTKVWSLIQLARRYLQKGYTTLLFREGDFYCSYFLWFENDMGYKLQMIEVPVLSDDSVPIGMLGGDYYRKLLRYYSKNRPTEAVRCYELLALHLSVIPTDLLVQQAGQLARRLWEASRIPLL
notes: Codes for the same HPS residues as the 1272-2306 construct but is a separate construct; also called HPS protein domain 1272-2357; HPS U65676 1272-2357; not shown: order of the two pie

Key:
[1] = target: T1, Atrophin-1, prey insert starting at nucleotide 2649 of GenBank U23851, fused to the Gal4 DNA binding domain (yeast; human, UniProt P04386 1-147); experiment: yeast two-hybrid, reverse screen; listed in Table I as an interaction with HPS 210-1292, 1 isolate
T1 construct: Prey of the reverse screen; Residue limits derived from the printed nucleotide start; also called Atrophin I; atrophin-I
Method: (§1) The two mating strains ([…]) were then diluted in YAPD media (see Id.) filtered onto nitrocellulose membranes and incubated at 30° C. for 6–8 hours. […] The mating products were plated on synthetic complete (SC) media (see Kaiser, Michaelis & Mitchell, Eds., 1994. *Methods in Yeast Genetics*, 1994 *Ed.* (Cold Spring Harbor Laboratory Press, New York, N.Y.) lacking adenine and lysine (to select for successful mating), leucine and tryptophan (to select for expression of genes encoded by both the bait and prey plasmids), and uracil and histidine (to select for protein interactions). This medium is hereinafter referred to as SCS medium, for SC Selective medium.
(§2) Selected clones were subsequently examined for expression of β-galactosidase to confirm the formation of an HPS protein•HPS protein-IP interaction. […]
(§3) The cells contained within colonies which were "positive" for protein interaction contained a mixture of DNA-binding and activation-domain plasmids. […] Approximately 10 μl of each selected isolate was lysed, the inserts within the pAD-GAL4 or pGAD-GH for the activation domain plasmids and pBD-GAL4 or pGBT9BS plasmids were PCR amplified using primers specific for the flanking sequences of each vector and approximately 300 nucleotides (of what would be the protein's amino-terminus following translation) was determined using an ABI 377 sequenator. […]

[2] = target: T2, HPS protein bait fragment 210-1292 fused to the Gal4 DNA binding domain (forward screen) (yeast; human, UniProt P04386 1-147); experiment: yeast two-hybrid, forward screen; listed in Table I as an interaction with HPS 210-1292, 3 isolates
T2 construct: Residue limits are derived from the printed nucleotide limits; also called Hermansky-Pudlak Syndrome protein; HPS U65676 210-1292
Method: as §1, §2, §3

[3] = target: B1; experiment: yeast two-hybrid, reverse screen; listed in Table I as an interaction with HPS 210-1292, 2 isolates
Method: as §1, §2, §3

[4] = target: B5; experiment: yeast two-hybrid, reverse screen; listed in Table I as an interaction with HPS 1272-2357, 1 isolate
Method: as §1, §2, §3

[5] = target: T3, HPS protein fragment 1272-2306 fused to the Gal4 activator domain (reverse screen) (yeast; human, UniProt Q92902 356-700); experiment: yeast two-hybrid, reverse screen; listed in Table I as an interaction with HPS 1272-2306, 1 isolate
T3 construct: Residue limits are derived from the printed nucleotide limits; also called HPS protein domain comprised of nucleotides 1272-2306; HPS U65676 1272-2306; not shown: order of the two pie
T3 sequence: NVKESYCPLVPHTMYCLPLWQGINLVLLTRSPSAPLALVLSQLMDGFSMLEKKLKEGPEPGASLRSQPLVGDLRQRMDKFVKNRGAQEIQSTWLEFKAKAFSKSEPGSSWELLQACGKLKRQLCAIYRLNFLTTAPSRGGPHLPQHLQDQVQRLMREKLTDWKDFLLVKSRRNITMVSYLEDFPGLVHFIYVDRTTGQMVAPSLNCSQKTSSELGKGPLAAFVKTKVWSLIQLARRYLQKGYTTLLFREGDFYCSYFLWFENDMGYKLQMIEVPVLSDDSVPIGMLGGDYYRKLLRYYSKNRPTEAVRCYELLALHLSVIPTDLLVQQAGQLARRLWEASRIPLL
Method: as §1, §2, §3

[6] = target: T4, CDK2, prey insert starting at nucleotide 4 of GenBank X61622, fused to the Gal4 DNA binding domain (yeast; human, UniProt P04386 1-147); experiment: yeast two-hybrid, reverse screen; listed in Table I as an interaction with HPS 1272-2357, 1 isolate
T4 construct: Prey of the reverse screen; Residue limits derived from the printed nucleotide start; also called CDK2 X61622 4-*
Method: as §1, §2, §3

B1
binding result [1]: binds

B2: HPIP1 (prey sequence of 619 nucleotides, interaction starting at nucleotide 1) fused to the Gal4 activator domain (other, not shown: large carriers)
chain: GTRLSINPNNHSWLIIQADIYFATNQYSAALHYYLQAGAVCSDFFNKAVPPDVYTDQVIKRMIKCCSLLNCHTQVAILCQFLREIDYKTAFKSLQEQNSHDAMDSYYDYIWDVTILEYLTYLHHKRGETDKRQIAIKAIGQTELNASNPEEVLQLAAQRRKKKFLQAMAKLYF
notes: Prey of the forward screen, 3 identical clones from a human fetal brain cDNA library; also called cg49368.b1; cg49367.h11
binding result [2]: binds

B3: BMK1 alpha kinase, prey insert starting at nucleotide 2431 of GenBank U29725, fused to the Gal4 DNA binding domain (other, yeast)
chain: MKLLSSIEQACDICRLKKLKCSKEKPKCAKCLKNNWECRYSPKTKRSPLTRAHLTEVESRLERLEQLFLLIFPREDLDMILKMDSLQDIKALLTGLFVQDNVNKDAVTDRLASVETDMPLTLRQHRISATSSSEESSNKGQRQLTVSGAGYGVGFDLEEFLNQSFDMGVADGPQDGQADSASLSASLLADWLEGHGMNPADIESLQREIQMDSPMLLADLPDLQDP
notes: Prey of the reverse screen, 2 isolates; Residue limits derived from the printed nucleotide start
binding result [3]: binds

B4: 14-3-3 protein eta isoform, prey insert starting at nucleotide 764 of GenBank X80536, fused to the Gal4 DNA binding domain (other, yeast)
chain: MKLLSSIEQACDICRLKKLKCSKEKPKCAKCLKNNWECRYSPKTKRSPLTRAHLTEVESRLERLEQLFLLIFPREDLDMILKMDSLQDIKALLTGLFVQDNVNKDAVTDRLASVETDMPLTLRQHRISATSSSEESSNKGQRQLTVSQACLLAKQAFDDAIAELDTLNEDSYKDSTLIMQLLRDNLTLWTSDQQDEEAGEGN
notes: Prey from a human fetal brain cDNA library, reverse screens; Residue limits derived from the printed nucleotide start; also called 14-3-3 eta
binding result [4]: binds | binding result [5]: binds

B5
binding result [6]: binds
